# Patent US20230102344A1 (MARENGO THERAPEUTICS, published 2023)
# Positions count from the first letter of the chain named. Names may count otherwise.
# T1: Human NKp30 (BKM0179) (human, UniProt O14931 19-135, limits assumed)
# T1 sequence (looked up): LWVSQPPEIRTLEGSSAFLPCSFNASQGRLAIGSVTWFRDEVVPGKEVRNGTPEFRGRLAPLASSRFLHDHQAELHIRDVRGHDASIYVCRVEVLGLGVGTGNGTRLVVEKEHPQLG
# B1: BJM1079 (scFv)
# scFv: EIQLLESGGGLVQPGGSLRLSCAVSGFSITTTGYHWNWVRQAPGKGLEWVGYIYSSGSTSYNPSLKSRFTISRDTSKNTFYLQMNSLRAEDTAVYYCARGDWHYFDYWGQGTMVTVSSGGGGSGGGGSGGGGSGGGGSDSVTTQSPLSLPVTLGQPASISCSGEKLSDKYVHWYQQRPGQSPRMLIYENDRRPSGVPDRFSGSNSGNDATLKISRVEAEDVGVYFCQFWDSTNSAVFGGGTKVEIK
# notes: only 'BJM0411 Parental'; also called BJM0411 Parental
# B2: BKM0142 (scFv)
# scFv: B1 scFv with N62A
# notes: also called BJM0411 VH-N60A
# B3: BKM0144 (scFv)
# scFv: B1 scFv with N62A, D230A, N233A
# notes: also called BJM0411 VH-N60A-VL-D92A-N95A
# B4: BKM0139 (scFv)
# scFv: B1 scFv with D230A
# notes: also called BJM0411 VL-D92A
# B5: BKM0138 (scFv)
# scFv: B1 scFv with N233A
# notes: also called BJM0411 VL-N95A
# B6: BJM1078 (antibody, V domains shown)
# VH: EIQLLESGGGLVQPGGSLRLSCAVSGFSITTTGYHWNWVRQAPGKGLEWVGYIYSSGSTSYNPSLKSRFTISRDTSKNTFYLQMNSLRAEDTAVYYCARGDWHYFDYWGQGTMVTVSS
# VL: SSETTQPPSVSVSPGQTASITCSGEKLSDKYVHWYQQKPGQSPVMVIYENDRRPSGIPERFSGSNSGNTATLTISGTQAMDEADYFCQFWDSTNSAVFGGGTQLTVL
# notes: only 'BJM0407 Parental'; also called BJM0407 Parental
# B7: BKM0140 (scFv)
# scFv: EIQLLESGGGLVQPGGSLRLSCAVSGFSITTTGYHWNWVRQAPGKGLEWVGYIYSSGSTSYNPSLKSRFTISRDTSKNTFYLQMNSLRAEDTAVYYCARGDWHYFDYWGQGTMVTVSSGGGGSGGGGSGGGGSGGGGSSSETTQPPSVSVSPGQTASITCSGEKLSDKYVHWYQQKPGQSPVMVIYENDRRPSGIPERFSGSNSGNTATLTISGTQAMDEADYFCQFWASTNSAVFGGGTQLTVL
# notes: also called BJM0407 VL-D92A
# B8: BKM0141 (scFv)
# scFv: B7 scFv with A229D, N232A
# notes: also called BJM0407 VL-N95A
# B9: BKM0143 (scFv)
# scFv: B7 scFv with N62A, A229D
# notes: also called BJM0407 VH-N60A
# B10: BKM0145 (scFv)
# scFv: B7 scFv with N62A, N232A
# notes: also called BJM0407 VH-N60A-VL-D92A-N95A
# B11: BJM0898 (antibody, V domains shown)
# VH: QVQLVQSGAEVKKPGSSVKVSCKASGTDFKLTYIHWVRQAPGQGLEWMGRIFPGSGNVKYNEKFKGRVTITADTSTSTAYMELSSLRSEDTAVYYCAVSYYSYDVLDYWGQGTTVTVSS
# VL: DIQMTQSPSFLSASVGDRVTITCKASQNVDNRVAWYQQKPGKAPKALIYSSSHRYKGVPSRFSGSGSGTEFTLTISSLQPEDFATYFCQQFKSYPLTFGQGTKLEIK
# B12: BJM0900 (antibody, V domains shown)
# VH: B11 VH with T27H, K30R, F52S, P53A
# VL: B11 VL with D30A, N31D
# B13: BJM0387 (bispecific antibody, not shown: a dimerising Fc or GST; large carriers)
# heavy: QVQLVQSGAEVKKPGSSVKVSCKASGYSFTTYYIHWVRQAPGQGLEWMGWFFPGSGNIKYNEKFKGRVTITADTSTSTAYMELSSLRSEDTAVYYCAGSYYSYDVLDYWGQGTTVTVSSGGGGSGGGGSGGGGSGGGGSDIQMTQSPSFLSASVGDRVTITCKASQNVGINVVWHQQKPGKAPKALIYSSSHRYSGVPSRFSGSGSGTEFTLTISSLQPEDFATYFCQQFKSYPLTFGQGTKLEIKGGGGSQVQLVQSGAEVKKPGSSVKVSCKASGYTFTDYNMHWVRQAPGQGLEWIGYIYPYNGGTGYNQKFKSKATITADESTNTAYMELSSLRSEDTAVYYCARGRPAMDYWGQGTLVTVSS
# light: DIQMTQSPSSLSASVGDRVTITCRASESVDNYGISFMNWFQQKPGKAPKLLIYAASNQGSGVPSRFSGSGSGTDFTLTISSLQPDDFATYYCQQSKEVPWTFGQGTKVEIK
# notes: also called anti-CD33×TCRvβ antibody BJM0387
# Target: T1, Human NKp30 (BKM0179)
# Assay: SPR (Biacore T200): human NKp30 BKM0179 captured via anti-mouse Fc on CM5, antibody as analyte, 1:1 fit
row,Kd,Binder
1,1.26 nM,B1
2,1.28 nM,B2
3,6.4 nM,B3
4,3.2 nM,B4
5,3.2 nM,B5
6,1.48 nM,B6
7,3.3 nM,B7
8,3 nM,B8
9,1.45 nM,B9
10,4.2 nM,B10

# Target: T2, human TCRvβ (BIM0444) (human)
# T2 construct: also called human TCRβvP; human TCRvβ 6-5
# Assay: SPR (Biacore): antibody captured via anti-human Fc on CM5, BIM0444 as analyte, 1:1 fit
# T2 sequence (A0A0K0K1A5 22-114): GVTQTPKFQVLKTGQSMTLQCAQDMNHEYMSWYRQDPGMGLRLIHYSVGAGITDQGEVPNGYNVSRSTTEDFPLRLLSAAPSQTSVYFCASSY
row,Kd,Binder
1,11 nM,B11
2,2.7 nM,B12

# Target: T3, CD33 expressed on cells (MOLM-13, MV411, HL60) (human, UniProt P20138 18-364)
# T3 construct: whole, on cells; also called CD33+ MOLM-13 cells; CD33-expressing MOLM-13 cells
# Assay: binding to CD33+ MOLM-13 cells (cell binding assay)
# T3 sequence (P20138 18-364): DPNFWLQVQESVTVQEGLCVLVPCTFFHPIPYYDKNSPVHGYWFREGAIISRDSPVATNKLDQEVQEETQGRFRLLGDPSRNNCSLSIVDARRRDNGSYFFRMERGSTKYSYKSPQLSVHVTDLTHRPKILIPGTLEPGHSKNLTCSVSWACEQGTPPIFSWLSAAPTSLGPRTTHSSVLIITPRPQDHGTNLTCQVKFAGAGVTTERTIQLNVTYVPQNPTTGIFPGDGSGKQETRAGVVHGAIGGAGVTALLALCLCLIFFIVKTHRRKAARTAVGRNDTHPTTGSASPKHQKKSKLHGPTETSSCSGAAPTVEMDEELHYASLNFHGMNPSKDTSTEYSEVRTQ
row,binding result,Binder
1,binds,B13
